Measured values taken from US20260227403A1 (HENRY M JACKSON FOUNDATION FOR THE ADVANCEMENT OF MILITARY …, published 2026).

Legend:
[1] = biological target: T1, ETV1 immunogenic peptide P1 (human); assay: ELISA: 500 ng peptide coated per well, 29E4 titrated 0-1000 ng/mL, HRP goat anti-rabbit Ig 1:16,000, ABS 450 nm, duplicates
T1 construct: 27 amino acid peptide, ETV1 residues 212-238; also called immunogen peptide; ETV1 P1 peptide
Excerpt: (§1) HRP Goat anti-rabbit Ig was applied at 1:16,000 dilution in all reactions.
(§2) Peptides were synthesized to achieve ≥70% HPLC purity by a commercial vendor (GenScript Biotech, Piscataway, NJ). Peptides were reconstituted in either water, or with addition of acetonitrile, methanol, 10% acetic acid, or DMSO, depending on the overall charge of each peptide. Key residues required for mAb binding were probed by ELISA using overlapping peptides, truncated peptides and alanine substituted peptides. Reactions were performed in duplicate using NUNC 96-well flatbottom MaxiSorp plates (Thermo Scientific). After coating each well with 500 ng of peptide in 100 μL coating buffer (50 mM NaHCO₃, pH 9.6), the plates were sealed and incubated at 4° C. overnight. […] Plates were then washed once with wash buffer, incubated with 100 μL mAb 29E4 (serially diluted from 1 mg/mL) for 1 hour at 37° C. Plates were further washed four times with wash buffer, and then incubated at 37° C. with 100 μL of a horse radish peroxidase (HRP)-conjugated secondary antibody against the primary antibody, diluted 1:16,000 according to manufacturer's protocols (KPL, Inc., Gaithersburg, MD). After washing four times with wash buffer, 100 μL of K-Blue Aqueous TMB substrate (Neogen, Lexington, KY) was added to the plates and incubated uncovered for 30 minutes at room temperature. To stop the reaction, 100 μL of 2 N Sulphuric acid was added to each well and absorbance were measured immediately at 450 nm. All dilutions of reagents were performed in ELISA diluent (20% NGS in 1×PBS with 0.1% Triton-X 100).

[2] = biological target: T2, overlapping peptide P5 (12 amino acids, FIG. 3 panel A) (human); assay: as above
T2 construct: The overlapping 12-mer is meant here
T2 peptide: PFPPQGFKQEYH
Excerpt: as §1, §2

[3] = biological target: T3, overlapping peptide P7 (12 amino acids, FIG. 3 panel A) (human); assay: as above
T3 construct: The overlapping 12-mer is meant here
T3 peptide: FKQEYHDPVYEH
Excerpt: as §1, §2

[4] = biological target: T4, overlapping peptide P4 (12 amino acids, FIG. 3 panel A) (human); assay: as above
T4 peptide: PNIPFPPQGFKQ
Excerpt: as §1, §2

[5] = biological target: T5, overlapping peptide P6 (12 amino acids, FIG. 3 panel A) (human); assay: as above
T5 construct: The overlapping 12-mer is meant here
T5 peptide: PQGFKQEYHDPV
Excerpt: as §1, §2

[6] = biological target: T6, overlapping peptide P3 (12 amino acids, FIG. 3 panel A) (human); assay: as above
T6 construct: The overlapping 12-mer is meant here
T6 peptide: MSEPNIPFPPQG
Excerpt: as §1, §2

[7] = biological target: T7, P27 (alanine substituted, FIG. 3 panel E); assay: ELISA: 500 ng peptide coated per well, 29E4 at 40 ng/mL, HRP goat anti-rabbit Ig 1:16,000, ABS 450 nm, duplicates [CONT. 2]
T7 construct: also called E237 to alanine
Excerpt: as §1, §2

[8] = biological target: T8, P20 (alanine substituted, FIG. 3 panel E); assay: as above
T8 construct: also called E230 to alanine
Excerpt: as §1, §2

[9] = biological target: T9, P3 (alanine substituted, FIG. 3 panel E); assay: as above
T9 construct: not the overlapping peptide P3 of panel A; also called R213 to alanine
Excerpt: as §1, §2

[10] = biological target: T10, P9 (alanine substituted, FIG. 3 panel E); assay: as above
T10 construct: also called N219 to alanine
Excerpt: as §1, §2

[11] = biological target: T11, P23 (alanine substituted, FIG. 3 panel E); assay: as above
T11 construct: also called D233 to alanine
Excerpt: as §1, §2

[12] = biological target: T12, P28 (alanine substituted, FIG. 3 panel E); assay: as above
T12 construct: also called H238 to alanine
Excerpt: as §1, §2

[13] = biological target: T13, P18 (alanine substituted, FIG. 3 panel E); assay: as above
T13 construct: also called K228 to alanine
Excerpt: as §1, §2

[14] = biological target: T14, P19 (alanine substituted, FIG. 3 panel E); assay: as above
T14 construct: also called Q229 to alanine
Excerpt: as §1, §2

[15] = biological target: T15, alanine substituted peptide P12 (F222 to alanine) (human); assay: as above
T15 construct: The entry already carries the substitution
Excerpt: as §1, §2

T8 sequence (peptide, as listed by the source): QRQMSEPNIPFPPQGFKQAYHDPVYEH
T13 sequence (peptide, as listed by the source): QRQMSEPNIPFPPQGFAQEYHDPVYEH
T11 sequence (peptide, as listed by the source): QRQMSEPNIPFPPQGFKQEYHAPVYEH
T7 sequence (peptide, as listed by the source): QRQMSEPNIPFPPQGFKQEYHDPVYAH
T10 sequence (peptide, as listed by the source): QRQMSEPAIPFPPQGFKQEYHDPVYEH
T1 sequence (peptide, as listed by the source): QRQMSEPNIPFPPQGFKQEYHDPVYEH
T12 sequence (peptide, as listed by the source): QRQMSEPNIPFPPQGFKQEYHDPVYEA
T9 sequence (peptide, as listed by the source): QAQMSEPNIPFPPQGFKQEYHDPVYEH
T15 sequence (peptide, as listed by the source): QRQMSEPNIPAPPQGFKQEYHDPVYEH
T14 sequence (peptide, as listed by the source): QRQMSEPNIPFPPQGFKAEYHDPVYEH

EC50 (read off the curve) [1]: ~20 ng/mL | binding result [2]: binds | binding result [3]: no binding (tested: 1000 ng/mL) | EC50 (read off the curve) [4]: ~100 ng/mL | binding result [5]: no binding (tested: 1000 ng/mL) | binding result [6]: binds | binding result [7]: binds | binding result [8]: binds | binding result [9]: binds | binding result [10]: binds | binding result [11]: binds | binding result [12]: binds | binding result [13]: binds | binding result [14]: binds | binding result [15]: no binding (tested: 40 ng/mL)
B1: ETV1 rabbit monoclonal antibody (29E4) (antibody, V domains shown)
VH: QELEESGGDLVKPGASLTLTCTASGFFFSAENHICWVRQAPGKGLEWIGCVYIGSYVGGSGDPYYASWAKGRFTISKTSSTTVTLQMSSLTAADTATYFCARDLGSLWGPGTLVTVSS
VL: DVVMTQTASSVSAAVGGTVTIACQSSQSVYDNNNLAWFQQKPGQPPKRLIYSASTLASGVSSRFKGSGYGTQFTLTISDVQCDDAATYYCVGAFSGYIFVFGGGTEVVVK
notes: constant regions are not; also called 29E4 mAb; ETV1 29E4 mAb
